Assay results from publication PMC6940745 (International Journal of Molecular Sciences, 2019).
Where a SMILES comes first, the peptide text is derived from it. [ ]: non-standard residue; d: D form. The star is where a group is joined. Gly(N(CH2)2(3-indolyl)) = O=C(O)CNCCc1c[nH]c2ccccc12; N(indol-3-ylmethyl)Gly = O=C(O)CNCc1c[nH]c2ccccc12; 2Nal = N[C@@H](Cc1ccc2ccccc2c1)C(=O)O; d2Nal = N[C@H](Cc1ccc2ccccc2c1)C(=O)O; Dab = NCC[C@H](N)C(=O)O; Bz = O=C(c1ccccc1)*; NPr2 = CCCN(CCC)*

B1: MC1R-agonist pentapeptide 4 (Bz-Gly-His-D-Phe-Arg-D-Trp-N(Propyl)2) (peptide)
peptide: Bz-GH[dF]R[dW]-NPr2
SMILES: CCCN(CCC)C(=O)[C@@H](Cc1c[nH]c2ccccc12)NC(=O)[C@H](CCCNC(=N)N)NC(=O)[C@@H](Cc1ccccc1)NC(=O)[C@H](Cc1c[nH]cn1)NC(=O)CNC(=O)c1ccccc1
B2: MC1R-agonist pentapeptide 6 (Bz-Gly-His-D-Phe-Arg-D-Phe-NH2) (peptide)
peptide: Bz-GH[dF]R[dF]-NH2
SMILES: N=C(N)NCCC[C@H](NC(=O)[C@@H](Cc1ccccc1)NC(=O)[C@H](Cc1c[nH]cn1)NC(=O)CNC(=O)c1ccccc1)C(=O)N[C@H](Cc1ccccc1)C(N)=O
B3: MC1R-agonist pentapeptide 1 (Bz-Gly-His-D-Phe-Arg-L-Trp-NH2) (peptide)
peptide: Bz-GH[dF]RW-NH2
SMILES: N=C(N)NCCC[C@H](NC(=O)[C@@H](Cc1ccccc1)NC(=O)[C@H](Cc1c[nH]cn1)NC(=O)CNC(=O)c1ccccc1)C(=O)N[C@@H](Cc1c[nH]c2ccccc12)C(N)=O
B4: MC1R-agonist pentapeptide 5 (Bz-Gly-His-D-Phe-Arg-L-Trp-N(Propyl)2) (peptide)
peptide: Bz-GH[dF]RW-NPr2
SMILES: CCCN(CCC)C(=O)[C@H](Cc1c[nH]c2ccccc12)NC(=O)[C@H](CCCNC(=N)N)NC(=O)[C@@H](Cc1ccccc1)NC(=O)[C@H](Cc1c[nH]cn1)NC(=O)CNC(=O)c1ccccc1

Experiments:
[1] = target: T1, human recombinant MC1 receptor (Homo sapiens, UniProt Q01726); experiment: MC1R activation, cAMP HTRF assay in CHO-K1 cells; format: cell-based
T1 construct: host or cells: CHO-K1
T1 sequence (Q01726 whole entry): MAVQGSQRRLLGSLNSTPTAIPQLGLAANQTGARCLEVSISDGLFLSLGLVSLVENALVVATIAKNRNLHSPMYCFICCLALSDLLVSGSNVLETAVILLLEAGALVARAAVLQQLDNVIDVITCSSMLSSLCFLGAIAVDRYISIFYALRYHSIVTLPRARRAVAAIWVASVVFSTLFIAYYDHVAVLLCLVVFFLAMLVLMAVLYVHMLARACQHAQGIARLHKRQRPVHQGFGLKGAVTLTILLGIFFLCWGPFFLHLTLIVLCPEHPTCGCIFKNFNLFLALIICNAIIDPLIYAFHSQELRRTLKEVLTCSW
Description: MCR-activation assays were performed by means of a cAMP HTRF (homogeneous time resolved fluorescence) assay for Gs-coupled receptors (cAMP Gs dynamic kit, Cisbio bioassays, 62AM4PEC). CHO-K1 cells expressing human recombinant MC1 receptor (EuroscreenFast, Gosselies, Belgium) (or MC2R, MC3R, MC4R, MC5R) were grown prior to the test in media without antibiotic. They were detached by gentle flushing with PBS-EDTA (5 mM EDTA), recovered by centrifugation, and resuspended in assay buffer (5 mM KCl, 1.25 mM MgSO4, 124 mM NaCl, 25 mM HEPES, 13.3 mM Glucose, 1.25 mM KH2PO4, 1.45 mM CaCl2, 0.5 g/L BSA, supplemented with 1 mM IBMX). Dose response curves were performed in parallel with the reference compounds. For agonist test (96-well), 12 µL of cells were mixed with 12 µL of the test compound diluted at increasing concentrations in assay buffer, and then incubated for 30 min at room temperature. After addition of the lysis buffer and 1 h incubation, fluorescence signal was measured, according to the manufacturer’s specifications, with the homogeneous time resolved fluorescence (HTRF) kit.

[2] = test system: B16 murine melanoma cells; experiment: Total melanin synthesis in mouse melanoma cells; format: cell-based; settings: 72 h incubation
Description: B16 murine melanoma cells, which are highly responsive towards stimulation with alpha-melanocyte stimulating hormone (alpha-MSH), were grown in Dulbecco’s modified eagle medium (DMEM) with 1 g/L glucose supplemented with 3 g/L glucose, 2 mM L-glutamine, 50 U/mL Penicillin, 50 µg/mL Streptomycin, and 10% fetal calf serum. They were kept at 37 °C in a 5% CO2 atmosphere. Cells were grown for 24 h and then medium was replaced with medium containing the test or reference (NDP-alpha-MSH) compounds. After 72 h, total (intracellular and extracellular) melanin content was determined by absorbance spectroscopy at 405 nm. The results were quantified against a melanin standard curve.
Figure 1 Total melanin synthesis in mouse melanoma cells stimulated with MC1R-agonist peptides. MC1R-agonist peptides were incubated at various concentrations together with the near confluent mouse melanoma cell line B16F10. NDP-alpha-MSH at 100 nM was used as the reference and set to 100% melanin (red line). Error bars represent standard error of the mean of three experiments.

[3] = test system: human abdominal skin ex vivo; experiment: Stimulation of pigmentation in human abdominal skin ex vivo (Fontana-Masson melanin quantification); format: cell-based; settings: 200 µM peptide, topical, six days
Description: Following declaration of Helsinki principles (DoH-Oct2013, World Medical Association, Ferney-Voltaire, France), human skin samples were obtained from elective plastic surgery after informed consent was obtained. For the two experiments shown in Figure 2, Figure 3 and Figure 4, we had one person with an individual topology angle (ITA°) of 18, and one person with an ITA° of 39 [69]. The skin samples were cut in pieces of 8 × 3 mm and cultured up to day 6. Skin samples were cultured in an air–liquid interface in a perforated ring of stainless steel in contact with culture medium (modified Williams’ E medium). The culture medium was renewed every three days (i.e., day 0–3). Compounds were added daily in DMSO at 4 µL volume. At day 6, the skin samples were fixed in formalin, embedded in paraplast, and cut at the microtome for histochemical staining and consequent image analysis. Six skin biopsies were used for each single treatment.
Two skin biopsies for each treatment were weighed and, in each case, reduced in the dermal portion, in order to have approximately the same weight for all of them. Samples were then washed and processed with methylthiazolyldiphenyl-tetrazolium bromide (MTT). The color intensity, that is directly proportional to skin vitality, was measured with a plate reader at a wavelength of 570 nm. For melanin quantification, skin sections were stained with a modified Fontana-Masson stain that dyes melanin argentaffin granules in black/dark grey. The amount of melanin present in each slide was evaluated by estimating grey intensity and distribution within the sections using ImageJ application (NIH-USA). Two slides of each skin sample were processed by image acquisition and related analysis (i.e., 12 images for each treatment).
Figure 2 Stimulation of pigmentation by MC1R-agonist peptides ex vivo. Melanin was quantified on skin sections using ImageJ software (NIH, USA). Human abdominal skin was topically treated with peptides at various concentrations for six days. * p < 0.05 vs vehicle by unpaired Student’s t-test. […]

[4] = test system: other MCRs; set-up: method as in PMID 12591094, PMID 12576087; settings: MCRs besides MC1R; cited from earlier work
[5] = target: Melanocortin-1 receptor (MC1R), human recombinant, in CHO-K1 cells (human) (UniProt Q01726)
Chain of Melanocortin-1 receptor (MC1R), human recombinant, in CHO-K1 cells (human) (Q01726 whole entry): as above

[6] = target: Melanocortin-1 receptor (MC1R), human recombinant, in CHO-K1 cells (human) (UniProt Q01726); remark: listed apart in the source
[7] = target: Endothelin B-receptor (ETBR), human (human) (UniProt P24530)
Chain of Endothelin B-receptor (ETBR), human (human) (P24530 27-442): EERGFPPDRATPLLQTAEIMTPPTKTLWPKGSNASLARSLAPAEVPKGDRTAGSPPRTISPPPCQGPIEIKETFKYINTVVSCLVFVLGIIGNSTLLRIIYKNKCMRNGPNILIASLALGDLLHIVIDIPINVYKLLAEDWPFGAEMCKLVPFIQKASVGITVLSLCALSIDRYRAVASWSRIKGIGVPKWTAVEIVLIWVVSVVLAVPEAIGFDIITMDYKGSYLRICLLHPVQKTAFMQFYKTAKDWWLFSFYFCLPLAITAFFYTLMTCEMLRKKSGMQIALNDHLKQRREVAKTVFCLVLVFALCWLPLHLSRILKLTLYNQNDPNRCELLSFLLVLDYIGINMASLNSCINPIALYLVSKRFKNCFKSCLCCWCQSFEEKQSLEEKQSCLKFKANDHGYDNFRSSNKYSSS

[8] = target: Melanin-concentrating hormone receptor MCH1R, human (human) (UniProt Q99705)
Chain of Melanin-concentrating hormone receptor MCH1R, human (human) (Q99705 whole entry): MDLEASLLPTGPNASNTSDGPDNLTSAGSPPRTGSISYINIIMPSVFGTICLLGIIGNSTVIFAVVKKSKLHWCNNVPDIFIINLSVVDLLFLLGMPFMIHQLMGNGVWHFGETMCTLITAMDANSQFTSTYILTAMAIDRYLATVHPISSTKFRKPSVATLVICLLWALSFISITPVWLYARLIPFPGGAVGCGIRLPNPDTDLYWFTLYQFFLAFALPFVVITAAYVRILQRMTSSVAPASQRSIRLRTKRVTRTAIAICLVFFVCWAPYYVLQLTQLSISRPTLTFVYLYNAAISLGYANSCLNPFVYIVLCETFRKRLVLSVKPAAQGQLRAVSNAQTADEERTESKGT

[9] = target: Melanin-concentrating hormone receptor MCH2R, human (human) (UniProt Q969V1)
Chain of Melanin-concentrating hormone receptor MCH2R, human (human) (Q969V1 whole entry): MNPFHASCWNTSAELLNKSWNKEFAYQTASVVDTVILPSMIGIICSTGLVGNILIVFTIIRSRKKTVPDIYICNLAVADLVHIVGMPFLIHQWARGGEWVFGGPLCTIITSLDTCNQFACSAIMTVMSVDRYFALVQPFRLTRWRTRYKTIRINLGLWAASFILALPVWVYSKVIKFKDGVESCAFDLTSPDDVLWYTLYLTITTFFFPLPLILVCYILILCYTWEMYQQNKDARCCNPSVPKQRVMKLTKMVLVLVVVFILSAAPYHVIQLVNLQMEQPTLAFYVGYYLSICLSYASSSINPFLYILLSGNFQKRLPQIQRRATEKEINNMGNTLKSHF

[10] = target: Melanocortin-2 receptor (MC2R), recombinant, in CHO-K1 cells (human) (UniProt Q01718)
Chain of Melanocortin-2 receptor (MC2R), recombinant, in CHO-K1 cells (human) (Q01718 whole entry): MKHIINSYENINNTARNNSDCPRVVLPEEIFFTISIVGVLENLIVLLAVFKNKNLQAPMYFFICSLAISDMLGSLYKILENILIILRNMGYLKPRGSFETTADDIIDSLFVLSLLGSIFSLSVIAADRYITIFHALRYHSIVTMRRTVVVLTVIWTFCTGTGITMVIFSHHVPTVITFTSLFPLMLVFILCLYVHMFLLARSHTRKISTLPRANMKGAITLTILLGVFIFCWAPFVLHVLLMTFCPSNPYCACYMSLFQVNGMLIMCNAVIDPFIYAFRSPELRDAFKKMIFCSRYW

[11] = target: Melanocortin-3 receptor (MC3R), recombinant, in CHO-K1 cells (human) (UniProt P41968)
Chain of Melanocortin-3 receptor (MC3R), recombinant, in CHO-K1 cells (human) (P41968 whole entry): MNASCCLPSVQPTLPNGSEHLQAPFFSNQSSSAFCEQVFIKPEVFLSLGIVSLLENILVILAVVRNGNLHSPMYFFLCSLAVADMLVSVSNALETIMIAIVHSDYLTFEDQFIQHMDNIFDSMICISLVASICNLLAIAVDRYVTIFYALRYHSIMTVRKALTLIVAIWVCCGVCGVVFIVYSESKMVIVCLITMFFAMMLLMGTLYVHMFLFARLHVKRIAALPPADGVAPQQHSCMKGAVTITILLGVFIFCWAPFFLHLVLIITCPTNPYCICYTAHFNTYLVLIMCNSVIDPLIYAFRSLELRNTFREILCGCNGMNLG

[12] = target: Melanocortin-4 receptor (MC4R), recombinant, in CHO-K1 cells (human) (UniProt P32245)
Chain of Melanocortin-4 receptor (MC4R), recombinant, in CHO-K1 cells (human) (P32245 whole entry): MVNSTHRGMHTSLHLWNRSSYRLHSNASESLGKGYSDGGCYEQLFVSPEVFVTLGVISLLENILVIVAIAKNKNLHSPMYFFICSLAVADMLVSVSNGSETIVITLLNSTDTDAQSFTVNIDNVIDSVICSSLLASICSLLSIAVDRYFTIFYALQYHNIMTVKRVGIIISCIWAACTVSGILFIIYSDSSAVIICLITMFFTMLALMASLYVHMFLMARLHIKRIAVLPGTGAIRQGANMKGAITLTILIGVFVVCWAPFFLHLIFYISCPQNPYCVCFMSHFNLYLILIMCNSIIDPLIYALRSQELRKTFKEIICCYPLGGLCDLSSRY

[13] = target: Melanocortin-5 receptor (MC5R), recombinant, in CHO-K1 cells (human) (UniProt P33032)
Chain of Melanocortin-5 receptor (MC5R), recombinant, in CHO-K1 cells (human) (P33032 whole entry): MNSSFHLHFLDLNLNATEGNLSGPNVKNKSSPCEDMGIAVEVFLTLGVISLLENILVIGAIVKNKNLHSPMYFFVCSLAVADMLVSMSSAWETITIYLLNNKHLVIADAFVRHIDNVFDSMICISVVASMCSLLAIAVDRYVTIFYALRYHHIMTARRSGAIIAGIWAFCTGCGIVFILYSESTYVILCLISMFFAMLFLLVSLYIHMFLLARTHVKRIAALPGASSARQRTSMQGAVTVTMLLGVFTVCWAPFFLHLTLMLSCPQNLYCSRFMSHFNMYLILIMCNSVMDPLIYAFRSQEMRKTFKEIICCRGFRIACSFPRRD

[14] = target: Melatonin receptor MT1R (UniProt P48039)
Chain of Melatonin receptor MT1R (P48039 whole entry): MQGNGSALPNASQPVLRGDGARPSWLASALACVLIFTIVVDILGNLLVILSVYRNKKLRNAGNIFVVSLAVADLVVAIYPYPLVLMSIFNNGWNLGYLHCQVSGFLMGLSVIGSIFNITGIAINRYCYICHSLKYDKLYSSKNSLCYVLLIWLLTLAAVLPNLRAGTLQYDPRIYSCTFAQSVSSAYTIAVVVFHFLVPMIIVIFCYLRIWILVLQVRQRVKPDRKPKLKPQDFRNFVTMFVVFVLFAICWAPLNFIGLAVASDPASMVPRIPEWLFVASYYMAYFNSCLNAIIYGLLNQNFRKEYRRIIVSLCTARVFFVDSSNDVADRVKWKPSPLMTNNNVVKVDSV

[15] = target: T2, Melatonin receptor MT2R (UniProt P49286)
T2 sequence: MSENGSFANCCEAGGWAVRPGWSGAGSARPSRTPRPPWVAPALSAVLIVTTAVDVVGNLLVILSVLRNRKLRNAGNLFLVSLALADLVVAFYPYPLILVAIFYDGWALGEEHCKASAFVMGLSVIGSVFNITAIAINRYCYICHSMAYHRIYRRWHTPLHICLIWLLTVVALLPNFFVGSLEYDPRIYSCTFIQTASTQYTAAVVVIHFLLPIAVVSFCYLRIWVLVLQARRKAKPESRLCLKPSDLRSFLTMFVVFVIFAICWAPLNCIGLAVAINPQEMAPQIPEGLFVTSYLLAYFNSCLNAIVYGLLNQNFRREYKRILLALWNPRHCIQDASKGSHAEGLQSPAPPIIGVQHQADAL

[16] = target: Opioid receptor OP1R (human delta opioid receptor) (human) (UniProt P41143)
[17] = target: Opioid receptor OP2R (human kappa opioid receptor) (human) (UniProt P41145)
[18] = target: Opioid receptor OP3R (human mu opioid receptor) (human) (UniProt P35372)
[19] = target: Serotonin receptor 5-HT2AR, human (human) (UniProt P28223)

Row | Molecule | EC50 [1] [nM] | Concentration at which maximal melanin synthesis activity comparable to 100 nM NDP-alpha-MSH is reached [2] | EC50 of MC1R activation (cAMP HTRF assay, CHO-K1 cells expressing human MC1R) [5] [nM] | also measured
1 | N=C(N)NCCC[C@H](NC(=O)[C@@H](Cc1ccccc1)NC(=O)[C@H](Cc1c[nH]cn1)NC(=O)CNC(=O)c1ccccc1)C(=O)N[C@@H](Cc1c[nH]c2ccccc12)C(N)=O [Peptide 1] (Bz-GH[dF]RW-NH2) | 0.041 | around 12.3 nM |  | Stimulation of pigmentation compared to vehicle-treated control tissue [3]: up to 21%
2 | N=C(N)NCCC[C@H](NC(=O)[C@@H](Cc1ccccc1)NC(=O)[C@H](Cc1c[nH]cn1)NC(=O)CNC(=O)c1ccccc1)C(=O)N[C@@H](Cc1ccc2ccccc2c1)C(N)=O [Peptide 2] (Bz-GH[dF]R[2Nal]-NH2) | 0.11 | around 12.3 nM |  | 
3 | N=C(N)NCCC[C@H](NC(=O)[C@@H](Cc1ccccc1)NC(=O)[C@H](Cc1c[nH]cn1)NC(=O)CNC(=O)c1ccccc1)C(=O)N[C@H](Cc1ccc2ccccc2c1)C(N)=O [Peptide 3] (Bz-GH[dF]R[d2Nal]-NH2) | 0.25 | around 12.3 nM |  | 
4 | CCCN(CCC)C(=O)[C@H](Cc1c[nH]c2ccccc12)NC(=O)[C@H](CCCNC(=N)N)NC(=O)[C@@H](Cc1ccccc1)NC(=O)[C@H](Cc1c[nH]cn1)NC(=O)CNC(=O)c1ccccc1 [Peptide 5] (Bz-GH[dF]RW-NPr2) | 0.88 |  |  | 
5 | N=C(N)NCCC[C@H](NC(=O)[C@@H](Cc1ccccc1)NC(=O)[C@H](Cc1c[nH]cn1)NC(=O)CNC(=O)c1ccccc1)C(=O)N[C@H](Cc1ccccc1)C(N)=O [Peptide 6] (Bz-GH[dF]R[dF]-NH2) | 1.79 | > 111 nM |  | 
6 | N=C(N)NCCC[C@H](NC(=O)[C@@H](Cc1ccccc1)NC(=O)[C@H](Cc1c[nH]cn1)NC(=O)CNC(=O)c1ccccc1)C(=O)N(CCc1c[nH]c2ccccc12)CC(N)=O [Peptide 7] (Bz-GH[dF]R[Gly(N(CH2)2(3-indolyl))]-NH2) |  | > 111 nM |  | 
7 | NCC[C@H](NC(=O)[C@@H](Cc1ccccc1)NC(=O)[C@H](Cc1c[nH]cn1)NC(=O)CNC(=O)c1ccccc1)C(=O)N[C@@H](Cc1c[nH]c2ccccc12)C(N)=O [Peptide 8] (Bz-GH[dF][Dab]W-NH2) | 7.51 | > 111 nM |  | 
8 | Ac-Ser-Tyr-Ser-Met-Glu-His-Phe-Arg-Trp- Gly-Lys-Pro-Val-NH2 [alpha-MSH] |  |  |  | Potency among other MCRs [4]: ≤ 5 nM
9 | MC1R-agonist pentapeptide 2 (Bz-Gly-His-D-Phe-Arg-L-NaphAla-NH2) |  |  | 0.11 | 
10 | MC1R-agonist pentapeptide 3 (Bz-Gly-His-D-Phe-Arg-D-NaphAla-NH2) |  |  | 0.25 | 
11 | MC1R-agonist pentapeptide 8 (Bz-Gly-His-D-Phe-Dab-L-Trp-NH2) |  |  | 7.51 | 
12 | NDP-alpha-MSH [Nle^4, D-Phe^7] (peptide) |  |  |  | EC50 of MC1R activation (cAMP production, recombinant CHO-MC1R cell line; control compound) [6]: 0.071 nM
13 | B1 |  |  | 0.42 | EC50 of receptor activation (Aequorin assay, recombinant cells; eight concentrations from 0.01 to 100,000 nM) [7]: > 100000 nM; EC50 of receptor activation (Aequorin assay, recombinant cells; eight concentrations from 0.01 to 100,000 nM) [8]: > 100000 nM; EC50 of receptor activation (Aequorin assay, recombinant cells; eight concentrations from 0.01 to 100,000 nM) [9]: > 100000 nM; EC50 of receptor activation (cAMP HTRF assay, CHO-K1 cells; eight concentrations from 0.01 to 100,000 nM) [10]: > 100000 nM; EC50 of receptor activation (cAMP HTRF assay, CHO-K1 cells; eight concentrations from 0.01 to 100,000 nM) [11]: 877 nM; EC50 of receptor activation (cAMP HTRF assay, CHO-K1 cells; eight concentrations from 0.01 to 100,000 nM) [12]: 136 nM; EC50 of receptor activation (cAMP HTRF assay, CHO-K1 cells; eight concentrations from 0.01 to 100,000 nM) [13]: > 100000 nM; EC50 of receptor activation (GTPγ[35S] scintillation proximity assay on CHO-K1 membrane preparations; eight concentrations from 0.01 to 100,000 nM) [14]: > 100000 nM; EC50 of receptor activation (GTPγ[35S] scintillation proximity assay on CHO-K1 membrane preparations; eight concentrations from 0.01 to 100,000 nM) [15]: > 100000 nM; EC50 of receptor activation (GTPγ[35S] scintillation proximity assay on CHO-K1 membrane preparations; eight concentrations from 0.01 to 100,000 nM) [16]: > 100000 nM; EC50 of receptor activation (GTPγ[35S] scintillation proximity assay on CHO-K1 membrane preparations; eight concentrations from 0.01 to 100,000 nM) [17]: > 100000 nM; EC50 of receptor activation (GTPγ[35S] scintillation proximity assay on CHO-K1 membrane preparations; eight concentrations from 0.01 to 100,000 nM) [18]: > 100000 nM; EC50 of receptor activation (Aequorin assay, recombinant cells; eight concentrations from 0.01 to 100,000 nM) [19]: > 100000 nM
14 | B2 |  |  | 1.79 | 
15 | B3 |  |  | 0.041 | 
16 | B4 |  |  | 0.88 | 
17 | Bz-GH[dF]R[N(indol-3-ylmethyl)Gly]-NH2 [MC1R-agonist pentapeptide 7 (Bz-Gly-His-D-Phe-Arg-[N-(CH2-3-indolyl)Gly]-NH2)] |  |  | 4.4 | 
